Assay [1] deals with T1, uPAR overexpressing Hela cells (Homo sapiens, UniProt Q03405).
T1 construct: endogenous in cells; host or cells: Hela cells
The assay can be described thus: Competitive binding assay on uPAR overexpressing Hela cells. Particulars: ratio of IC50 values. An excerpt:
This assay is to measure the binding avidity of multivalent PEG-GFD pharmacophores to uPAR overexpressing Hela cells in comparison to uPA. Hela cells express uPAR but not uPA (Rabbani et al., Neoplasia, 2010, 12(10); 778-88), and therefore competition from endogenous uPA can be excluded.
Mouse anti-uPAR (Clone VIM5) is an uPAR blocking antibody (Sillaber et al., J Biol Chem, 1997, 272(12):7824-32). The potency of multivalent PEG-GFD pharmacophores and native uPA to compete against the antibody in binding to the overexpressed uPAR on the surface of Hela cells is measured and compared in this assay.
Hela cells were detached from culture flasks by trypsin/EDTA, resuspended in complete culture medium in a 50 mL conical tube, and incubated for 1 h at 37° C. in 5% CO2 incubator to allow receptor recovery. PE-conjugated anti-uPAR antibody (Clone VIM5; Invitrogen) at the final concentration of 0.5 μg/100 μL (33.33 nM) was mixed with titrated concentrations of 4-arm PEG-GFD and 6-arm PEG-GFD, and recombinant human uPA (Biolegend) in Stain Buffer. The mixture was added into Hela cells (500,000 cells in 100 μL; final density). […] The fluorescent intensity of PE on Hela cells was quantified by flow cytometry and plotted against the titration of 4-arm PEG-GFD, 6-arm PEG-GFD and uPA. The binding avidity of multivalent PEG-GFD pharmacophores relative to native uPA can be calculated.

In assay [2] the test system is H1299, SW480, HT-1080 and PC3 cells. The assay can be described thus: Cell adhesion assay on vitronectin coated plate. Particulars: four uPAR overexpressing cell lines; 3 h; various concentrations. Type of assay: cell-based, human. On the procedure:
For adhesion of cancer cells to vitronectin, 96-well plate was coated overnight with vitronectin (Thermo Fisher Scientific) at 5 μg/mL in PBS at 4° C., 50 μL/well. The wells without coating were used as negative controls. The plate was then blocked with 3% MSD Blocking Buffer for 2 h at room temperature. Four uPAR overexpressing human cancer lines were used for the assay: non-small cell lung cancer line H1299, colorectal cancer line SW480, fibrosarcoma line HT-1080 and prostate cancer line PC3. The cells were detached from culture flasks by trypsin/EDTA, resuspended in complete culture medium in a 50 mL conical tube, and incubated for 1 h at 37° C. in 5% CO2 incubator to allow receptor recovery. Cells were then washed with serum-free medium and resuspended in DMEM medium with 0.5% BSA. 50,000 cells in 100 μL were plated into each well with various concentrations of 4-arm and 6-arm PEG-GFD pharmacophores, and uPAR blocking antibody, VIM5. The plates were incubated at 37° C. in 5% CO2 incubator for 3 h, and washed 4 times with PBS with 0.5% BSA. The number of adherent cells in each well was quantified by CellTiter-Glo (Promega).

Assay [3] has as its system H1299 and HT-1080 cells. Kind of assay: Chemotaxis assay (fibronectin coated transwell). Type of assay: cell-based, human. Particulars: 10% FBS chemoattractant, 16 h. On the procedure: Chemotaxis assay was performed using BD BioCoat 24-well transwell with 8 μm pore size filter which is coated with fibronectin (Corning). For the study, H1299 and HT-1080 cells were detached from culture flasks with trypsin/EDTA, and then the trypsin was deactivated by adding the complete medium. The cells were washed with serum-free medium twice and resuspended at the final density of 50,000 cells in 500 μL DMEM medium supplemented with 0.5% BSA. The cells were treated with multivalent pharmacophores and uPAR blocking antibody for 1 h at 37° C. in 5% CO2 incubator. 650 μL of DMEM with 10% FBS was used as chemoattractant and added into the lower chamber. Serum-free DMEM medium was used as a negative control, and no drug treatment well was considered as 100% migration. After placing the upper chamber into the lower chamber, 500 μL cell suspensions were added to the upper chamber. 4-arm PEG-GFD, 6-arm PEG-GFD and uPAR blocking antibody, VIM5, with various concentrations were added in both upper and lower chambers. The transwell was incubated at 37° C. in 5% CO2 incubator for 16 h. […] The number of cells migrated past the filter was quantify by reading the solution in plate reader after transferring into a white 96-well plates.

For assay [4], the system named is H1299 and HT-1080 cells. The assay can be described thus: Matrigel invasion assay. Type of assay: cell-based, human. Particulars: 10 nM, 24 h. Here is the method: The migration of cells through Matrigel indicates the ability of the cells to digest the extracellular matrix during the process of migration. The Matrigel invasion assay is similar to the chemotaxis assay above except that the 8 μm pore size filter is coated with Matrigel. BD BioCoat Matrigel Invasion Chamber (Corning) was used for the assay with H1299 and HT-1080 cells. 4-arm PEG-GFD, 6-arm PEG-GFD and the blocking antibody VIM5 were used at the concentration of 10 nM. After 24 h treatment, the Matrigel along with the cells remaining on the upper surface of filter in the upper chamber was scraped off with a cotton swab. The migrated cells were measured with CellTiter-Glo as described above.

Assay [5] deals with T2, CD47 overexpressing Jurkat cells (Homo sapiens, UniProt Q08722).
T2 construct: endogenous in cells; host or cells: Jurkat cells
The assay can be described thus: Competitive binding assay on CD47 overexpressing Jurkat cells. The settings on record: for IC50: against FITC-conjugated anti-CD47 B6H12.2 at ~33.3 nM, 3 h on ice; for increase of avidity compared to SIRPα monomer: ratio of IC50 values. Here is the method: This assay is to measure the binding avidity of multivalent PEG-SIRPα IgV pharmacophores to CD47 overexpressing Jurkat cells by competing against FITC-conjugated CD47 blocking antibody, and to compare the avidity to the affinity of wide-type SIRPα ectodomain.
FITC-conjugated mouse anti-human CD47 monoclonal antibody (Clone B6H12.2, Invitrogen) at the final concentration of 0.5 μg/100 μL (˜33.3 nM) was mixed with titrated concentration (from 0.04 nM to 10.5 μM in Stain Buffer) of SIRPα monomer (Acro Biosystems), 4-arm PEG-2K SIRPα IgV and 6-arm PEG-3.4K SIRPα IgV, both wide-type and Q67R mutant forms. The mixture was added into Jurkat cells (500,000 cells in 100 μL, final density). After incubation on ice for 3 h with occasional mixing, the cells were washed to remove the unbound reagents. The fluorescence intensity of FITC was quantified by flow cytometry. The increase of the binding activity for multivalent PEG-SIRPα IgV pharmacophores compared to SIRPα monomer can be calculated.

Assay [6] has as its target T3, human red blood cells (RBCs) (Homo sapiens, UniProt Q08722).
T3 construct: from tissue; host or cells: red blood cells from human whole blood of healthy donors
Kind of assay: Competitive binding assay on human red blood cells. Particulars: either wide-type or mutant SIRPα IgV; antibody at ~33.3 nM; titration up to 200 nM. Here is the method:
To assess the risks from binding of multivalent PEG-SIRPα IgV pharmacophores to normal RBCs and subsequent anemia as has been reported for many CD47 targeting agents, a similar competitive binding assay as (4) above is conducted using RBCs as the binding targets.
Human whole blood from healthy donors was drawn into sodium heparin tube. The blood was washed 3 times with PBS and diluted in Stain Buffer (0.5×10^6 RBCs in 100 μL, final density). The competitive binding was performed by incubating RBCs with FITC-conjugated CD47 blocking antibody (Clone B6H12.2, Invitrogen) at the final concentration of 0.5 μg/100 μL (˜33.3 nM) and titrated concentration of 4-arm, or 6-arm PEG-SIRPα IgV as described above, or an unconjugated CD47 blocking antibody (B6H12.2, Invitrogen). A mouse isotype IgG1 was used as a negative control. RBCs were incubated with the reagents on ice for 3 h, mixing occasionally. After washing, the fluorescence intensity of FITC on RBCs was quantified by flow cytometry.

Assay [7] deals with T4, uPAR on cells (uPAR overexpressing Hela, HT-1080, H1299, SW480 and PC3 cells) (human, UniProt Q03405 23-305).
T4 construct: whole, on cells; also called CD87; overexpressed uPAR
The assay can be described thus: competitive flow cytometry on uPAR overexpressing Hela cells against PE-VIM5 at ~33.33 nM. Here is the method:
Hela cells were detached from culture flasks by trypsin/EDTA, resuspended in complete culture medium in a 50 mL conical tube, and incubated for 1 h at 37° C. in 5% CO₂ incubator to allow receptor recovery. […] The mixture was added into Hela cells (500,000 cells in 100 μL; final density). After incubation on ice for 3 h with occasional mixing, the cells were washed to remove the unbound test reagents.

Where a chain is given by its changes, count along the chain named. In names and notes the source's numbering stands. Where no end group is shown, it is not given here.

T2 sequence (Q08722 19-323): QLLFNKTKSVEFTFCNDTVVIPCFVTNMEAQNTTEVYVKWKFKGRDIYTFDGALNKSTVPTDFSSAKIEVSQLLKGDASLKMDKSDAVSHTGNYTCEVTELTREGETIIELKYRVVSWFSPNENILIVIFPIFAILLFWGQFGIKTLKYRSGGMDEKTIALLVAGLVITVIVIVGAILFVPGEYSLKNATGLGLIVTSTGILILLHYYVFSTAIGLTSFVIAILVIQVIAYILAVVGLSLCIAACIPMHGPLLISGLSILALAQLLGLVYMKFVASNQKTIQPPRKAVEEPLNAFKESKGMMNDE
T3 sequence (Q08722 19-323): as above
T4 sequence (Q03405 23-305): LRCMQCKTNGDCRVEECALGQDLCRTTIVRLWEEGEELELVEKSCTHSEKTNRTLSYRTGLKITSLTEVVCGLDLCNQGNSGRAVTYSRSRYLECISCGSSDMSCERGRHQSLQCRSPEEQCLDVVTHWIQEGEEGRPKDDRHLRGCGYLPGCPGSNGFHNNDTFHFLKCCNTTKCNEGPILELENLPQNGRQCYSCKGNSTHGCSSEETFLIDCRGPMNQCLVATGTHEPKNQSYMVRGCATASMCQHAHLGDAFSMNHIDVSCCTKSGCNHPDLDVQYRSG
T1 sequence (Q03405 23-335): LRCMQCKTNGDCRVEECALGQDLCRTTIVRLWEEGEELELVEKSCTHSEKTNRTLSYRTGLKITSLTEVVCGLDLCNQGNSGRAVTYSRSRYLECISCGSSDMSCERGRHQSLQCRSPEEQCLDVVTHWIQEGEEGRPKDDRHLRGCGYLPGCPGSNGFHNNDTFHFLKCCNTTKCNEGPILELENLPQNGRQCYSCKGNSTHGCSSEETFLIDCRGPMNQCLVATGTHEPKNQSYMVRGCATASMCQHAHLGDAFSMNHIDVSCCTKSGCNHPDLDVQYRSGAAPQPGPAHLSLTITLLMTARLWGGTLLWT

For the molecule “4-arm PEG-GFD: growth factor-like domain of uPA (first 43 amino acids) conjugated to 4-arm PEG-2K (VPSNCDCLNGGTCVSNKYFSNIHWCNCPKKFGGQHCEIDKSKT; not fully specified (C-terminus); ends and bridges not checked; also: conjugated to 4-arm PEG-2K (site not given here))”, in assay [1], the “fold increase in binding activity relative to native uPA” value is given as around 31 fold. In addition, the “inhibition of adhesion to vitronectin” value in assay [2] is reported as “inhibited the adhesion of all four cell lines to vitronectin dose-dependently”. Moreover, the “migration of cells to the lower chamber (chemotaxis)” value in the assay on H1299 and HT-1080 cells [3] is listed as “significantly reduced migration”. The Matrigel invasion entry in the assay with H1299 and HT-1080 cells [4] was “significantly inhibited”.

B1: wide-type 4-arm PEG-SIRPα IgV: 4-arm PEG-2K conjugated with wide-type SIRPα IgV-like domain (conjugate)
chain: EEELQVIQPDKSVLVAAGETATLRCTATSLIPVGPIQWFRGAGPGRELIYNQKEGHFPRVTTVSDLTKRNNMDFSIRIGNITPADAGTYYCVKFRKGSPDDVEFKSGAGTELSVRA
For the molecule B1, in assay [5], the IC50 was 8.12 nM and the “increase of avidity compared to SIRPα monomer” value is “about 995 folds”.

B2: 6-arm PEG-SIRPα IgV: 6 units of SIRPα IgV-like domain conjugated to 6-arm PEG-3.4K; wide-type or Q67R mutant not specified (conjugate)
chain: B1 chain
In the case of B2, the “competitive binding to RBCs against FITC-conjugated CD47 blocking antibody” value in assay [6] is “did not compete”.

B3: mutant 6-arm PEG-SIRPα IgV: 6-arm PEG-3.4K conjugated with Q67R mutant SIRPα IgV-like domain (conjugate)
chain: B1 chain with Q37R
Molecule B3 showed an IC50 in assay [5] of 1.06 nM.

B4: 4-arm PEG-SIRPα IgV: 4 units of SIRPα IgV-like domain conjugated to 4-arm PEG-2K; wide-type or Q67R mutant not specified (conjugate)
chain: B1 chain
Regarding B4, the “competitive binding to RBCs against FITC-conjugated CD47 blocking antibody” value in assay [6] is “did not compete”.

B5: mutant 4-arm PEG-SIRPα IgV: 4-arm PEG-2K conjugated with Q67R mutant SIRPα IgV-like domain (conjugate)
chain: B1 chain with Q37R
On to B5, for which the IC50 in assay [5] stood at 10.9 nM.

B6: wide-type 6-arm PEG-SIRPα IgV: 6-arm PEG-3.4K conjugated with wide-type SIRPα IgV-like domain (conjugate)
chain: B1 chain
Turning to B6, in assay [5], the IC50 is 0.723 nM and the “increase of avidity compared to SIRPα monomer” value was ~11,174 folds.

B7: 4-arm PEG-GFD (designed binder)
chain: VPSNCDCLNGGTCVSNKYFSNIHWCNCPKKFGGQHCEIDKSKT
modifications: not fully specified (C-terminus); ends and bridges not checked; also: four GFD units on 4-arm PEG-2K
notes: Four GFD units on 4-arm PEG-2K; Expressed in E. coli; also called tetravalent PEG-GFD pharmacophore; 4-arm PEG growth factor-like domain of uPA
In assay [7], B7 had a 50% inhibitory concentration (IC50) of 1.14 nM.

B8: 6-arm PEG-GFD (designed binder)
chain: B7 chain
modifications: not fully specified (C-terminus); ends and bridges not checked; also: six GFD units on 6-arm PEG-3.4K
notes: Six GFD units on 6-arm PEG-3.4K; also called hexavalent PEG-GFD pharmacophore; 6-arm PEG growth factor-like domain of uPA
Consider B8, for which the IC50 in assay [7] was 0.412 nM.

These data come from patent US20210230248A1, “Multivalent pharmacophores for high avidity and overexpressed-target specific binding and uses thereof” (priority 2020, published 2021).
